Data taken from PMC9412841 (ACS Applied Materials & Interfaces, 2022).
Blank lines part the entries; values can stand above or below the molecule they belong to.

Experiments:
[1] = μPET/μCT stability study of ^64Cu-labeled pTrMA-co-DOTA (fresh, plasma-incubated, free ^64CuCl2); format: in vivo, C57BL/6 mice; settings: female mice, n = 4, i.v., fresh 200 μCi, plasma-incubated (37 °C, 24 h) 100 μCi, ^64CuCl2 100 μCi, mean ± SEM
Procedure: To determine if organ signal attenuation was occurring because ^64Cu was released from pTrMA-co-DOTA in vivo due to insufficiently strong DOTA chelation, the stability of the radiolabeled polymer as well as the biodistribution and excretion of free ^64Cu was investigated by further μPET/μCT imaging. Mice (female, n = 4) were i.v. injected with the fresh ^64Cu-labeled pTrMA-co-DOTA (200 μCi), ^64Cu-pTrMA-co-DOTA after incubating in plasma at 37 °C for 24 h (100 μCi), and free ^64CuCl2 (100 μCi). […] If ^64Cu was readily leached from the DOTA group when incubated in plasma, the shifting biodistribution in the organs with time would have been the same as with the mice exposed to free ^64CuCl2. […]
Figure 6 Time course biodistribution and excretion of fresh ^64Cu-labeled pTrMA-co-DOTA (blue), plasma-incubated ^64Cu-labeled pTrMA-co-DOTA (red), and free ^64CuCl2 (green) from the organs (a) brain, (b) heart, (c) liver, (d) left kidney, (e) right kidney, (f) bladder, (g) muscle, (h) left lung, (i) right lung, (j) spleen, and (k) intestine of female (n = 4) mice. […] Data were quantified from μPET images.
^64Cu-radiolabeled pTrMA-co-DOTA was incubated in plasma collected from a female C57BL/6 mouse at 37 °C for 24 h. […] Co-registered μPET/μCT images were analyzed, and MIPs were generated using AMIDE software.

[2] = C57HL/6 mice, 72 h; cited from earlier work
Text: In the final time points of the extended μPET/μCT experiment, the signal in the liver still appeared to be going down, while the study co ...

[3] = Differential scanning calorimetry, melting temperature of insulin; format: physicochemical; settings: DSC; insulin 10 mg/mL in 10 mM HCl; pTrMA 5 mol equiv or trehalose 50 mg/mL
Text: In addition, differential scanning calorimetry was undertaken to study the melting temperature of the insulin. […] Thus, it is unlikely that the change in melting temperature is a significant factor in protein stabilization.

[4] = Accelerated heating assay of insulin (90 °C, 30 min), HPLC and PAGE; format: physicochemical; settings: DPBS pH 7.4, insulin 1 mg/mL final, pTrMA 28.1 kDa 2 mol equiv, 0.22 μm filtered, RP-HPLC, n = 3
Procedure: The formulations were heated to 90 °C for 30 min. […] The heated samples were also investigated by native polyacrylate gel electrophoresis (PAGE) for changes to MW or isoelectric point for evidence of chemical changes or aggregate formation (Figure 8b).
For all *p < 0.05, **p < 0.01, and ***p < 0.001.
(§1) The samples were stored at 4 °C or heated to 90 °C for 30 min in ambient light. Aliquots of each insulin sample were used directly for SDS and native PAGE as well as ThT assay. […] ThT was prepared at 50 μM (0.0159 mg/mL) in 20 mM DPBS pH 7.4. Into a black 96-well plate, 50 μL of each sample was pipetted. To these was added 250 μL of ThT solution, and the plate was incubated at room temperature (21 °C) for 20 min. Fluorescence intensity was measured on a Tecan M1000 plate reader (λex = 450 nm, λem = 482 nm).

[5] = Thioflavin T (ThT) fibrillation assay; format: physicochemical; settings: 90 °C, 30 min; ThT 50 μM, 20 min at 21 °C; λex 450 nm, λem 482 nm; n = 3
Procedure: as §1, with “In addition, differential scanning calorimetry was undertaken to study the melting temperature of the insulin. […] Thus, it is unlikely that the change in melting temperature is a significant factor in protein stabilization. […] The” for “The”

[6] = Long-term insulin stability at 4 °C, RP-HPLC; format: physicochemical
Procedure: To study relevant storage, the formulations were kept at a standard refrigeration temperature at 4 °C for 46 weeks.
The samples were stored at 4 °C for […], followed by regular sampling.

[7] = SEC-MALS oligomerization state of insulin; format: physicochemical; settings: insulin 30 mg/mL, 0.1 M PBS pH 7.4; pTrMA 26.0 kDa 30 mg/mL; fresh or heated 90 °C 30 min
[8] = tested on: IgG and IgM antibodies specific to OVA or pTrMA; assay: Antibody immunogenicity study, IgG and IgM immune ELISA of serum; format: in vivo; settings: female CD-1 mice, n = 5–6; i.p. at weeks 0 and 2; OVA 2 mg/kg, pTrMA 10 wt %; serum weeks 1-3; ELISA vs naïve serum
Procedure: To study the adaptive immune response in the form of antibody production, mice were challenged at weeks 0 and 2 with the model immunogenic protein ovalbumin (OVA, 2 mg/kg) as a positive control, pTrMA (10 wt % or 100 mg/mL), or both OVA + pTrMA (2 mg/kg OVA, 10 wt % pTrMA) via intraperitoneal (i.p.) injection. Serum was collected each week, and the immunoglobulin IgG and IgM antibodies specific to OVA or pTrMA were measured by ELISA. For ELISA, OVA or bovine serum albumin (BSA) conjugated with pTrMA (Figure S1) was adsorbed for 16–18 h on microplate wells to capture any antibodies in the serum. Serum from challenged mice and naïve mice as a negative control was measured for antibodies against the challenge antigen, OVA, or the BSA–pTrMA conjugate. Serum from the mice treated with OVA and pTrMA was tested against both OVA and the BSA–pTrMA conjugate. Testing against both antigens measured if the polymer increases the immunogenicity of OVA and, conversely, if the presence of an immunogenic protein, OVA, elicited an immunogenic response to the polymer (Figure S2).
Figure 2 Antibody levels in mice specific to OVA or pTrMA (BSA–pTrMA conjugate) antigens over 3 weeks after i.p. injection of OVA (2 mg/kg), OVA + pTrMA (2 mg/kg, 10 wt %), or pTrMA (10 wt %) at weeks 0 and 2 (n = 5–6). […]

total signal remaining at the 24 h time point [1]: 56.3 ± 19.7%
Molecule: [64Cu+2].[Cl-].[Cl-] [^64CuCl2]
accumulation in the kidneys [2]: 10 % ID/cc
accumulation in the liver [2]: 13 % ID/cc

Molecule: insulin: Recombinant human insulin purchased from Sigma-Aldrich
melting temperature of insulin (alone or with the named additive) [3]: 86.6 °C
degradation (deamidation at AsnB3) after heating, HPLC [4]: very little intact insulin remaining
ThT fluorescence signal [5]: significantly higher (p < 0.01) fluorescence signal than fresh insulin
intact insulin, % of the original level, after 20 weeks ([6]; DPBS pH 7.4, insulin 1 mg/mL final, pTrMA 10.1 kDa 2 mol equiv, 0.22 μm filtered, RP-HPLC, n = 3, mean ± SEM): 67.4 ± 7.0%
appearance of solution (aggregation) during weeks 20-46 ([6]; DPBS pH 7.4, visual): visually cloudy
oligomerization state by SEC-MALS [7]: no hexameric insulin was present

melting temperature of insulin (alone or with the named additive) [3]: 88.8 °C
Molecule: OC[C@H]1O[C@H](O[C@H]2O[C@H](CO)[C@@H](O)[C@H](O)[C@H]2O)[C@H](O)[C@@H](O)[C@@H]1O [trehalose]

B1: OVA: model immunogenic protein ovalbumin, positive control (protein, UniProt P01012 2-386, looked up)
Ovalbumin: GSIGAASMEFCFDVFKELKVHHANENIFYCPIAIMSALAMVYLGAKDSTRTQINKVVRFDKLPGFGDSIEAQCGTSVNVHSSLRDILNQITKPNDVYSFSLASRLYAEERYPILPEYLQCVKELYRGGLEPINFQTAADQARELINSWVESQTNGIIRNVLQPSSVDSQTAMVLVNAIVFKGLWEKAFKDEDTQAMPFRVTEQESKPVQMMYQIGLFRVASMASEKMKILELPFASGTMSMLVLLPDEVSGLEQLESIINFEKLTEWTSSNVMEERKIKVYLPRMKMEEKYNLTSVLMAMGITDVFSSSANLSGISSAESLKISQAVHAAHAEINEAGREVVGSAEAGVDAASVSEEFRADHPFLFCIKHIATNAVLFFGRCVSP
OVA-specific IgG response [8]: increased in both weeks 2 and 3
OVA-specific IgM response [8]: only elevated in the first week
